Measurements from patent publication US20100196267A1.
Values belong to the binder of their own block, whether it stands above or below them.

Key:
[1] = target: HLA-DR (human); test: indirect FACS, FITC-GAH Fc 2nd Ab, Namalwa cells (none 2.5); control antibody
[2] = target: HLA-DR (human); test: indirect flow cytometry, FITC-GAH Fc 2nd Ab, WSU-FSCCL cells (none 2.7); negative control antibody
[3] = target: HLA-DR (human); test: indirect FACS, FITC-GAH Fc 2nd Ab, Daudi cells (none 3.1); control antibody
[4] = target: antigen on dog lymphoma cells recognised by L243 and hL243 (dog); test: flow cytometry on dog lymphoma aspirate, humanized MAbs (none 3.24); control antibody
[5] = target: antigen on dog lymphoma cells recognised by L243 and hL243 (dog); test: flow cytometry on dog lymphoma aspirate, humanized MAbs (none 4.48); control antibody
[6] = target: HLA-DR (human); test: indirect flow cytometry, FITC-GAH Fc 2nd Ab, RL cells (none 2.4); negative control antibody
[7] = target: HLA-DR (human); test: indirect FACS, FITC-GAH Fc 2nd Ab, SU-DHL-6 cells (none 4.6); control antibody
[8] = target: HLA-DR (human); test: indirect flow cytometry, FITC-GAH Fc 2nd Ab, Daudi cells (none 3.2); negative control antibody
[9] = target: HLA-DR (human); test: indirect FACS, FITC-GAH Fc 2nd Ab, Ramos cells (none 3.1); control antibody
[10] = target: HLA-DR (human); test: indirect flow cytometry, FITC-GAH Fc 2nd Ab, Raji cells (none 6.9); negative control antibody
[11] = target: HLA-DR (human); test: indirect FACS, FITC-GAH Fc 2nd Ab, WSU-FSCCL cells (none 2.6); control antibody
[12] = target: HLA-DR (human); test: indirect flow cytometry, FITC-GAH Fc 2nd Ab, Namalwa cells (none 2.6); negative control antibody
[13] = target: HLA-DR (human); test: indirect flow cytometry on Namalwa cells, FITC-GAH 2nd Ab (none 2.52); control antibody
[14] = target: HLA-DR (human); test: indirect flow cytometry, FITC-GAH Fc 2nd Ab, Ramos cells (none 3.1); negative control antibody
[15] = target: HLA-DR (human); test: indirect flow cytometry, FITC-GAH Fc 2nd Ab, SU-DHL-6 cells (none 4.6); negative control antibody
[16] = target: HLA-DR (human); test: indirect FACS, FITC-GAH Fc 2nd Ab, Raji cells (none 6.8); control antibody
[17] = target: human serum complement (human); test: cell-based or functional assay
[18] = target: HLA-DR (human); test: indirect flow cytometry on Namalwa cells, FITC-GAM 2nd Ab (none 2.91); control antibody

Geometric Mean Fluorescence [1]: 2.36
Geometric Mean Fluorescence [2]: 2.7
Geometric Mean Fluorescence [3]: 3.16
Mean FL [4]: 3.24
% [5]: 4.63%
Geometric Mean Fluorescence [6]: 2.8
Geometric Mean Fluorescence [7]: 4.94
Geometric Mean Fluorescence [8]: 3.2
Geometric Mean Fluorescence [9]: 3.13
Geometric Mean Fluorescence [10]: 7
Geometric Mean Fluorescence [11]: 2.66
Geometric Mean Fluorescence [12]: 2.4
GEO MEAN Fluorescence [13]: 2.49
Geometric Mean Fluorescence [14]: 3.1
Geometric Mean Fluorescence [15]: 4.9
Geometric Mean Fluorescence [16]: 6.96
B1: hMN-14 (antibody, INN chains, looked up, V domains shown)
VH: EVQLVESGGGVVQPGRSLRLSCSASGFDFTTYWMSWVRQAPGKGLEWIGEIHPDSSTINYAPSLKDRFTISRDNAKNTLFLQMDSLRPEDTGVYFCASLYFGFPWFAYWGQGTPVTVSS
VL: DIQLTQSPSSLSASVGDRVTITCKASQDVGTSVAWYQQKPGKAPKLLIYWTSTRHTGVPSRFSGSGSGTDFTFTISSLQPEDIATYYCQQYSLYRSFGQGTKVEIKR

B2: hL243γ1 (antibody, human IgG1, V domains shown)
VH: QVQLQQSGSELKKPGASVKVSCKASGFTFTNYGMNWVKQAPGQGLKWMGWINTYTREPTYADDFKGRFAFSLDTSVSTAYLQISSLKADDTAVYFCARDITAVVPTGFDYWGQGSLVTVSS
VL: DIQLTQSPSSLSASVGDRVTITCRASENIYSNLAWYRQKPGKAPKLLVFAASNLADGVPSRFSGSGSGTDYTFTISSLQPEDIATYYCQHFWTTPWAFGGGTKLQIKR
complement-mediated cytotoxicity (CDC) on Daudi cells, resazurin viability, EC50 [17]: 2.6 nM

GEO MEAN Fluorescence [18]: 3.32
B3: MN14 (murine) (antibody, from a related filing, V domains shown)
VH: EVKLLESGGGLVQSGGSLKLSCAASGFDFTTYWMSWVRQAPGKGLEWIGEIHPDSSTINYAPSLKDKFIVSRDNAKNTLYLQMSKVRSEDTALYYCASLYFGFPWFAYWGQGTPVTVSA
VL: EIQLTQSHKMMSTSVGDRVSITCKASQDVGTSVAWYQQRPGQSPKLLIYWTSTRHTGVPDRFTGSVSGTDFTLTITNVQSEDLADYFCQQYSLYRSFGGGTKLEIK
